One may read the Kd as a measure of binding affinity in units of concentration. The stoichiometry N is the number of molecules, sites or subunits per partner or assembly.

In one assay the target is IgM (Homo sapiens) (UniProt P01871). To be noted: cited from earlier work.
Assay [1] concerns the target IgM-Fc (Fcμ2-4) mutant M1 (K361D/D416R) (human). Nature of the assay: SEC-MALS; SEC-MALLS on Superdex 200 Increase 5/150 with in-line miniDAWN detector and refractometer; peaks of the homodimeric Fcμ2-4 proteins from SEC. (In general: In gel filtration, larger molecules generally elute earlier.)
In assay [2] the target is IgM-Fc (Fcμ2-4) mutant M3 (D340S/Q341G/D342S/T343S) (human). Nature of the assay: SPR; Biacore T200, 25 °C, 0.01 M HEPES, 0.15 M NaCl, 0.005% Surfactant P20, pH 7.4; IgM, IgM-Fc, Fcμ3-4 or IgM-Fc mutants immobilised on CM5 by amine coupling; analyte sIgFcμR 0.25 μM to 12 μM; steady state, 1:1 binding model. On the technique in general: Surface plasmon resonance follows binding to a sensor surface in real time, without labels.

The target in assay [3] is IgM-Fc (Fcμ2-4) wild-type, dimer of Cμ2-Cμ3-Cμ4 domains (human). The assay is described as above.
Assay [4] deals with Fcμ3-4, dimer of Cμ3-Cμ4 domains (human). Described as above.
Fcμ3-4, dimer of Cμ3-Cμ4 domains (human), sequence (P01871 other isoform, or with tags, fused parts or gaps): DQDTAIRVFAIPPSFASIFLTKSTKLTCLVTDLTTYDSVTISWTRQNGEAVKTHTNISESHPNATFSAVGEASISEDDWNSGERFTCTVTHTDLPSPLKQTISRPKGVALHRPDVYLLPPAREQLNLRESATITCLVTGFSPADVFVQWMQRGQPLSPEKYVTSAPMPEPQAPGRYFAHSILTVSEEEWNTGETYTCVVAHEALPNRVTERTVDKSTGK
In assay [5] the target is IgM-Fc (Fcμ2-4) wild-type, dimer of Cμ2-Cμ3-Cμ4 domains (human). The assay is described as above. The source holds these as a separate data set.
For assay [6], the target named is purified serum IgM (whole pentameric IgM) (human). Described as above.
In assay [7] the target is IgM-Fc (Fcμ2-4) wild-type, dimer of Cμ2-Cμ3-Cμ4 domains (human). Nature of the assay: SEC-MALS; SEC-MALLS on Superdex 200 Increase 5/150 with in-line miniDAWN detector and refractometer; peaks of the homodimeric Fcμ2-4 proteins from SEC.
For assay [8], the target named is IgM-Fc (Fcμ2-4) mutant M3 (D340S/Q341G/D342S/T343S) (human). Described as above.
Assay [9] has as its target IgM-Fc (Fcμ2-4) mutant M2 (Q510R) (human). The description is as above.

Like-named read-outs stand apart in the source and are kept apart here.

IgM (Homo sapiens), sequence (P01871 whole entry): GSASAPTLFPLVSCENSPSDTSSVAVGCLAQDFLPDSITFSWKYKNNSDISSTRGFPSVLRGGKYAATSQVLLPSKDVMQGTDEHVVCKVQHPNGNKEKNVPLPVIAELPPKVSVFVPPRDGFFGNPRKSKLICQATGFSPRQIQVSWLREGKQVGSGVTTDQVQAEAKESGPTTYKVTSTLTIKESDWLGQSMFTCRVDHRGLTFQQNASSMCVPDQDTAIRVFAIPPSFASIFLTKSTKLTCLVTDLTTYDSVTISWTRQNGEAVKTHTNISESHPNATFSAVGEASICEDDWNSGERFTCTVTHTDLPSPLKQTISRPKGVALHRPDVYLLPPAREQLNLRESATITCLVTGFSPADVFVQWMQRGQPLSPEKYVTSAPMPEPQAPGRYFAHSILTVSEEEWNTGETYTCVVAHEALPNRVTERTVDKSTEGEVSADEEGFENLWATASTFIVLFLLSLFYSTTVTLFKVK
FcμR (cell surface), sequence (O60667 17-390): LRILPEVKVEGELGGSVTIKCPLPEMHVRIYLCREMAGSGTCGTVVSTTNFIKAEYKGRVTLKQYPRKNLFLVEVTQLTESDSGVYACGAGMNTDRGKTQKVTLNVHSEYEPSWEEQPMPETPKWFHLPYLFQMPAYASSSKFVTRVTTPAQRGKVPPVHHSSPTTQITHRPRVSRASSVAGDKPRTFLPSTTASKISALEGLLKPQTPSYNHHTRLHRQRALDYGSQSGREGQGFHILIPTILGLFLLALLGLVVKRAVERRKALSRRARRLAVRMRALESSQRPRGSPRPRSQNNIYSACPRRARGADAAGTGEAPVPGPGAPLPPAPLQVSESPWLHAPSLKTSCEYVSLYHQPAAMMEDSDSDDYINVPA

For “FcμR (cell surface) (from UniProt O60667)”, the Kd with IgM (Homo sapiens) is 10 nM.
Take “IgM-Fc (Fcμ2-4) mutant M1 (K361D/D416R) (domain or fragment)”: the stoichiometry N in assay [1] turned out to be 2.
Take “soluble extracellular immunoglobulin-like domain of FcμR (domain or fragment)”: the equilibrium dissociation constant (Kd) in assay [2] stood at 1450 nM; in assay [3], 1830 nM; in assay [5] it was 1150 nM; in [6] it was 2490 nM. For the same substance, the stoichiometry N (sIgFcμR per IgM-Fc homodimer) in assay [4], in [5] and in [6] was 2 in each case.
The substance “IgM-Fc (Fcμ2-4) wild-type, dimer of Cμ2-Cμ3-Cμ4 domains (domain or fragment)” had a stoichiometry N in assay [7] of 2.
In turn, “IgM-Fc (Fcμ2-4) mutant M3 (D340S/Q341G/D342S/T343S) (domain or fragment)” returned a stoichiometry N in assay [8] of 2.
“IgM-Fc (Fcμ2-4) mutant M2 (Q510R) (domain or fragment)” had a stoichiometry N in assay [9] of 2.
